The record followed here is PMC4749557, “ETO family protein Mtgr1 mediates Prdm14 functions in stem cell maintenance and primordial germ cell formation” (eLife, 2015).

Where only a bound is given, the exact number is not on record here.

B1: human PRDM14 (residues 238–487) (domain or fragment, UniProt Q9GZV8 238-487, looked up)
chain: LPQTLDKDSLQLPEGLCLMQTVFGEVPHFGVFCSSFIAKGVRFGPFQGKVVNASEVKTYGDNSVMWEIFEDGHLSHFIDGKGGTGNWMSYVNCARFPKEQNLVAVQCQGHIFYESCKEIHQNQELLVWYGDCYEKFLDIPVSLQVTEPGKQPSGPSEESAEGYRCERCGKVFTYKYYRDKHLKYTPCVDKGDRKFPCSLCKRSFEKRDRLRIHILHVHEKHRPHKCSTCGKCFSQSSSLNKHMRVHSGDR
modifications: biotin (biotin-acceptor tag)
notes: vector based on p28BIOH-LIC; expression vector from the Structural Genomics Consortium; also called hPRDM14; source: E. coli BL21 (DE3) with pBirACm and 50 μM biotin, purified (Ni-Sepharose); not shown: biotin-acceptor tag, N-terminal, kept
B4: Mb(hPRDM14_S4) displayed on the yeast surface (designed binder)
chain: VSSVPTKLEVVAATPTSLLISWDAPAVTVDLYFITYGETGGNSPVQKFTVPGSKSTATISGLKPGVDYTITVYAQYYYRGWYVGSPISINYRT

In assay [1] the target is B4. The experiment in a line: yeast surface display; monobodies on the yeast surface with 50 nM of hPRDM14 or a homologue. Particulars: one partner purified.
The target in assay [2] is T1, recombinant Prdm14 pre-SET+SET domains (residues 184–373) (mouse, UniProt E9Q3T6 184-373, biotin (biotin-acceptor tag)).
T1 construct: gene assembled from synthetic oligonucleotides in the pHBT vector; a TEV site lies between the tags and the protein; also called mouse Prdm14; source: E. coli BL21 (DE3) with pBirACm and 50 μM biotin, purified (Ni-Sepharose); not shown: biotin-acceptor tag, N-terminal, kept
T1 sequence (looked up): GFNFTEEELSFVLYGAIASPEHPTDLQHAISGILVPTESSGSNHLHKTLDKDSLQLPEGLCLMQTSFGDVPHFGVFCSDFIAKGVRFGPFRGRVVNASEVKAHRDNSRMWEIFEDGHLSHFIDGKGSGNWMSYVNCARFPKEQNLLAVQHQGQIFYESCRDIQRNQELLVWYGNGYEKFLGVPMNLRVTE
Nature of the assay: bead-based binding assay; biotinylated Prdm14 immobilised on streptavidin M280 beads, biotinylated Mtgr1 (NHR1) in solution, detected with SAV-Dylight650 by flow cytometer; 50 mM Tris–HCl, 150 mM NaCl, pH 8, 1 mg/ml BSA, 1 mM EDTA, 0.1 mM DTT; 1:1 model. Particulars: both partners purified.

Assay [3] concerns the target T2, recombinant Prdm14 (residues 184–373) E294K (mouse, UniProt E9Q3T6 184-373, E294K, biotin (biotin-acceptor tag)).
T2 construct: also called E294K Prdm14; source: E. coli BL21 (DE3) with pBirACm and 50 μM biotin, purified (Ni-Sepharose); not shown: biotin-acceptor tag, N-terminal, kept
T2 sequence (looked up): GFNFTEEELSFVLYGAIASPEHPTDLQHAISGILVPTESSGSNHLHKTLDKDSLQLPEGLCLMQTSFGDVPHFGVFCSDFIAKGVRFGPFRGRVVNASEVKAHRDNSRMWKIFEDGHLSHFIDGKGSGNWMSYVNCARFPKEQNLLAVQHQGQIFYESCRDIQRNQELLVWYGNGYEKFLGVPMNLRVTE
The experiment in a line: bead-based binding assay; biotinylated Mtgr1 (NHR1) immobilised on streptavidin M280 beads, biotinylated Prdm14 in solution, detected with SAV-Dylight650 by flow cytometer; 50 mM Tris–HCl, 150 mM NaCl, pH 8, 1 mg/ml BSA, 1 mM EDTA, 0.1 mM DTT; 1:1 model. Particulars: both partners purified.

For assay [4], the target named is B1. The experiment in a line: yeast surface display; KD of monobody clones displayed on yeast for hPRDM14. Particulars: one partner purified.

As for B1, the “fold stronger binding than hPRDM6 and hPRDM12” value in assay [1] is at least 5 fold.

B2: recombinant Mtgr1 NHR1 domain (residues 98–206) (domain or fragment, mouse, UniProt O70374 98-206, looked up)
chain: LPATCGARQLSKLKRFLTTLQQFGNDISPEIGEKVRTLVLALVNSTVTIEEFHCKLQEATNFPLRPFVIPFLKANLPLLQRELLHCARAAKQTPSQYLAQHEKLLLNTS
modifications: biotin (biotin-acceptor tag)
notes: Mtgr1 (Cbfa2t2), residues 98–206 (NHR1/TAFH domain), with H200K from a cloning artifact; pHBT vector; a TEV site lies between the tags and the protein; also called wt Mtgr1; source: E. coli BL21 (DE3) with pBirACm and 50 μM biotin, purified (Ni-Sepharose); not shown: biotin-acceptor tag, N-terminal, kept
Take B2: the binding result in assay [2] is recorded as “binds”.

B3: recombinant Mtgr1 NHR1 domain (residues 98–206) K109E (domain or fragment, mouse, UniProt O70374 98-206, looked up)
chain: LPATCGARQLSELKRFLTTLQQFGNDISPEIGEKVRTLVLALVNSTVTIEEFHCKLQEATNFPLRPFVIPFLKANLPLLQRELLHCARAAKQTPSQYLAQHEKLLLNTS
modifications: biotin (biotin-acceptor tag)
notes: Mtgr1 (Cbfa2t2), residues 98–206, K109E on the pHBT construct that carries H200K; also called Mtgr1(K109E); source: E. coli BL21 (DE3) with pBirACm and 50 μM biotin, purified (Ni-Sepharose); not shown: biotin-acceptor tag, N-terminal, kept
For B3, in assay [3], the binding result was “binds”.
B4 came in with a Kd in assay [4] of under 100 nM.
